Key:
Test in all cases: SPR; Biacore T200; receptor domains amine-coupled to CM5-S Series chips; analytes 0-20 nM flowed over; 10 mM HEPES, 150 mM NaCl, 3 mM EDTA, 0.05% surfactant P20, pH 7.4; double-referenced; 1:1 Langmuir fit
[1] = molecular target: sortilin luminal domain (LD)
[2] = molecular target: p75NTR extracellular domain (p75NTR ECD) (UniProt P08138)
[3] = molecular target: SorCS2 luminal domain (LD)

Sequence of p75NTR extracellular domain (p75NTR ECD) (P08138 29-250): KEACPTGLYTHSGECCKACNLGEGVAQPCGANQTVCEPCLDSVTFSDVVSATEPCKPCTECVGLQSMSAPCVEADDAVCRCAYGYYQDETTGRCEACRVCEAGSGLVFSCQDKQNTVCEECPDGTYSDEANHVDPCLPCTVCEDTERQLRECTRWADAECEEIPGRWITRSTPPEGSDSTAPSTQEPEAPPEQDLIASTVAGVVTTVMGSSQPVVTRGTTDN

Kd [1] | koff [1] | kon [1] | Kd [2] | koff [2] | kon [2] | Kd [3] | koff [3] | kon [3] | Substance
6.44 nM | 0.0217 s⁻¹ | 3.8e+06 M⁻¹ s⁻¹ | 0.62 nM | 0.00251 s⁻¹ | 4.44e+06 M⁻¹ s⁻¹ |  |  |  | brain-derived neurotrophic factor (BDNF) (ligand)
3.83 nM | 0.00504 s⁻¹ | 1.56e+06 M⁻¹ s⁻¹ | 2.31 nM | 0.00325 s⁻¹ | 1.55e+06 M⁻¹ s⁻¹ | 2.23 nM | 0.00453 s⁻¹ | 2.14e+06 M⁻¹ s⁻¹ | human proBDNF Met66, furin cleavage-resistant (FCR) (natural protein)
2.9 nM | 0.00746 s⁻¹ | 2.48e+06 M⁻¹ s⁻¹ | 2.42 nM | 0.00394 s⁻¹ | 1.88e+06 M⁻¹ s⁻¹ | 2.23 nM | 0.004 s⁻¹ | 1.79e+06 M⁻¹ s⁻¹ | human proBDNF Val66, furin cleavage-resistant (FCR) (natural protein)

— publication PMC4773404
